Assay results as given in publication PMC12409352.

Molecular target: BrxU, untagged (GmrSD-family Type IV restriction enzyme from Escherichia fergusonii) (Escherichia fergusonii)

With “IPI* (mature, active form of phage T4 internal protein I, product of ip1) (natural protein)” the in vitro digestion of glc-5mdC pUC19 DNA by untagged BrxU (1 mM ATP) after incubation with a titration of IPI*; excess of IPI* sufficient for robust inhibition was 30 fold excess.
